Assay [1] deals with T1, Full length recombinant HBcAg (rHBcAg) encompassing residues 1-183 (hepatitis B virus, UniProt P03146 1-183).
T1 construct: range 1-183; also called hepatitis B virus core antigen
The experiment in a line: EIA, support-bound peptide, HBcAg 5 ug/ml.

Assay [2] addresses T1, Full length recombinant HBcAg (rHBcAg) …. Put plainly: competition EIA, peptide added to HBcAg before mAb 4-2 (competitor); OD of bound mAb.
The target in assay [3] is T2, VKLSCKASGYIFTSHRGGPEE (SEQ. ID. No. 74).
T2 peptide: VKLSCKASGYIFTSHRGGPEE
Put plainly: competition EIA, 5 ug HBcAg peptide + 5 ug SEQ 74 peptide on coated HBcAg (competitor); OD of bound SEQ 74 peptide.

The target in assay [4] is T1, Full length recombinant HBcAg (rHBcAg) …. The experiment in a line: EIA, support-bound peptide, HBcAg 5 ug/ml. This is another data set of the same source.
Assay [5] has as its target T3, truncated recombinant form of HBeAg containing nine residues of pre-core and the 150 first residues of HBcAg (hepatitis B virus, UniProt P03146 1-150).
T3 construct: domain: nine residues of pre-core;range 1-150; also called hepatitis B virus e antigen
Put plainly: EIA, support-bound peptide, HBeAg 5 ug/ml.

For assay [6], the target named is T1, Full length recombinant HBcAg (rHBcAg) …. Put plainly: EIA, support-bound peptide, HBcAg 10 ug/ml.
The target is the same in assay [7]. Put plainly: EIA, support-bound peptide, HBcAg 20 ug/ml.
Assay [8] addresses T3, truncated recombinant form of HBeAg …. Put plainly: EIA, support-bound peptide, HBeAg 10 ug/ml.
For assay [9] the target is unchanged. Put plainly: EIA, support-bound peptide, HBeAg 20 ug/ml.
Assay [10] deals with T1, Full length recombinant HBcAg (rHBcAg) …. Put plainly: EIA, support-bound peptide, HBcAg 2 ug/well.
For assay [11], the target named is T4, non-structural 3 protein (NS3) of the hepatitis C virus (HCV) (hepatitis C virus).
T4 construct: Control antigen; also called HCV NS3
Put plainly: EIA, support-bound peptide, HCV NS3 control.

Assay [12] has as its target T1, Full length recombinant HBcAg (rHBcAg) …. Put plainly: EIA, support-bound peptide, HBcAg 2.5 ug/ml.
Assay [13] deals with T3, truncated recombinant form of HBeAg …. The experiment in a line: EIA, support-bound peptide, HBeAg 2.5 ug/ml.
Assay [14] concerns the target T1, Full length recombinant HBcAg (rHBcAg) …. Put plainly: EIA, support-bound peptide, HBcAg 0.67 ug/ml.
Assay [15] shares this target. The experiment in a line: EIA, support-bound peptide, HBcAg 1.25 ug/ml.
Assay [16] concerns the target T3, truncated recombinant form of HBeAg …. The experiment in a line: EIA, support-bound peptide, HBeAg 0.67 ug/ml.
For assay [17] the target is unchanged. The experiment in a line: EIA, support-bound peptide, HBeAg 1.25 ug/ml.
Assay [18] concerns the target T1, Full length recombinant HBcAg (rHBcAg) …. The experiment in a line: EIA, peptide coated 25 ug/ml, HBcAg 10 ug/ml.
For assay [19] the target is unchanged. Put plainly: EIA, peptide coated 50 ug/ml, HBcAg 10 ug/ml.
Assay [20] shares this target. The experiment in a line: EIA, support-bound peptide, HBcAg 0.2 ug/well.
Assay [21] has the same target. Put plainly: EIA, peptide coated 100 ug/ml, HBcAg 10 ug/ml.
The target is the same in assay [22]. Put plainly: EIA, peptide coated 12.5 ug/ml, HBcAg 10 ug/ml.
For assay [23] the target is unchanged. The experiment in a line: EIA, peptide coated 6.25 ug/ml, HBcAg 10 ug/ml.
For assay [24] the target is unchanged. The experiment in a line: EIA, peptide coated 3.125 ug/ml, HBcAg 10 ug/ml.

T1 sequence (P03146 whole entry, the tested form may be a part): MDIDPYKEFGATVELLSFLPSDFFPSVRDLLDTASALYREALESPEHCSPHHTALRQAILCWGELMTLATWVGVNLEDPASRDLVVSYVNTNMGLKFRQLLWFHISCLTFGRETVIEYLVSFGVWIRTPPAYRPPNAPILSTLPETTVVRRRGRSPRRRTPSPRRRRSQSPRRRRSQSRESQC
T3 sequence (P03146 1-150): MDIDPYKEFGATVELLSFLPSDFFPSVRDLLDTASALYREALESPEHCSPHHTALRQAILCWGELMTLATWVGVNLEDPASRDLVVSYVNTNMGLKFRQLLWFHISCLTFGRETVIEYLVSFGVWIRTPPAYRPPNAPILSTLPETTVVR

GYIFTS [GYIFTS (SEQ. ID. No. 52)]: the figures for the “OD at 490 nm” value in [1] and in assay [2] were 0.414 OD and 0.903 OD, respectively.
Turning to LDTASALYREALESPEHCSP [HBcAg peptide LDTASALYREALESPEHCSP (residues 31-50, Sequence ID 98)], the “OD at 490 nm” value in assay [3] is 1.59 OD.
On to CKASGYIFTS [CKASGYIFTS (SEQ. ID. No. 48)], for which the results for the “OD at 490 nm” value in assay [1] and in [2] were 0.255 OD and 0.851 OD, respectively.
Take LSCKASGYIFTS [LSCKASGYIFTS (SEQ. ID. No. 46)]: the figures for the “OD at 490 nm” value in [1] and in [2] were 0.565 OD and 0.777 OD, respectively.
As for AYRPPNAPILSTLPETTVVR [HBcAg peptide AYRPPNAPILSTLPETTVVR (residues 131-150, Sequence ID 108)], the “OD at 490 nm” value in [3] worked out at 1.56 OD.
On the same count and under the same terms, the same measure for WVGVNLEDPASRDLVVSYVN [HBcAg peptide WVGVNLEDPASRDLVVSYVN (residues 71-90, Sequence ID 102)]: 1.41 OD.
Take SCKASGYIFTS [SCKASGYIFTS (SEQ. ID. No. 47)]: the “OD at 490 nm” value is 0.297 OD in assay [1] and 0.784 OD in [2].
As to SDFFPSVRDLLDTASALYRE [HBcAg peptide SDFFPSVRDLLDTASALYRE (residues 21-40, Sequence ID 97)], the “OD at 490 nm” value in assay [3] was determined as 1.58 OD.
On the same count and under the same terms, the same measure for ALESPEHCSPHHTALRQAIL [HBcAg peptide ALESPEHCSPHHTALRQAIL (residues 41-60, Sequence ID 99)]: 1.37 OD; for TNMGLKFRQLLWFHISCLTF [HBcAg peptide TNMGLKFRQLLWFHISCLTF (SEQ. ID. No. 104, residues 91-110)]: 0.058 OD.
Take KASGYIFTS [KASGYIFTS (SEQ. ID. No. 49)]: the “OD at 490 nm” value in assay [1] was determined as 0.237 OD; in assay [2] it was 0.866 OD.
On the same counts, the results for SGYIFTS [SGYIFTS (SEQ. ID. No. 51)] are 0.389 OD and 0.887 OD.
Consider LWFHISCLTFGRETVIEYLV [HBcAg peptide LWFHISCLTFGRETVIEYLV (residues 101-120, Sequence ID 105)], for which the “OD at 490 nm” value in [3] is 1.13 OD.
The same measure, in the same setting: the same measure for CWGELMTLATWVGVNLEDPA [HBcAg peptide CWGELMTLATWVGVNLEDPA (residues 61-80, Sequence ID 101)]: 1.4 OD; for ATVELLSFLPSDFFPSVRDL [HBcAg peptide ATVELLSFLPSDFFPSVRDL (residues 11-30, Sequence ID 96)]: 1.39 OD.
The same measure, in the same setting: the same measure for SRDLVVSYVNTNMGLKFRQL [HBcAg peptide SRDLVVSYVNTNMGLKFRQL (SEQ. ID. NO. 103, residues 81-100)]: 0.386 OD.
Turning to YNMNWVKQSHGKSLEWIGNI (also called Peptide # 27) [YNMNWVKQSHGKSLEWIGNI (SEQ. ID. No. 30)], the OD stood at 0.059 OD in assay [4]; 0.029 OD in assay [5]; 0.115 OD in assay [6]; 0.305 OD in [7]; 0.037 OD in [8]; 0.04 OD in assay [9]. In addition, the OD was 0.042 OD in assay [12]; 0.032 OD in assay [13]; 0.02 OD in assay [14]; 0.026 OD in [15]; 0.018 OD in assay [16]; 0.021 OD in [17]. In addition, the OD in [18] worked out at 0.162 OD; in assay [19], 0.17 OD; in assay [21] it was 0.151 OD; in assay [22], 0.181 OD; in assay [23], 0.175 OD; in assay [24], 0.168 OD. Besides, the “OD at 405 nm” value worked out at 0.157 OD in [10], 0.021 OD in assay [11] and 0.114 OD in [20].
In the case of ASGYIFTS [ASGYIFTS (SEQ. ID. No. 50)], the figures for the “OD at 490 nm” value in assay [1] and in assay [2] were 0.407 OD and 0.92 OD, respectively.

Values taken from patent US20020058247A1 (TRIPEP, published 2002).
